Positions count from the first letter of the chain named. Names and notes keep the numbering of the source.

Experiment [1] addresses T1, rHuman EGF R/Fc Chimera, CF (R&D Systems Cat#344-ER) (human, UniProt P00533 25-645).
T1 construct: Bought recombinant Fc chimera; also called epidermal growth factor receptor; Fc part of the bought chimera not given
In words: ECL Multispot (MSD) assay, antigen spotted on plate, 10 nM Fab; blank spot 378.

Experiment [2] deals with T2, rHuman HGF R/c-MET/Fc Chimera, CF (R&D Systems Cat#358-MT/CF) (human, UniProt P08581 25-932).
T2 construct: Bought recombinant Fc chimera; also called HGF R/Fc; hepatocyte growth factor receptor; Fc part of the bought chimera not given
T2 sequence (P08581 25-932, change not shown): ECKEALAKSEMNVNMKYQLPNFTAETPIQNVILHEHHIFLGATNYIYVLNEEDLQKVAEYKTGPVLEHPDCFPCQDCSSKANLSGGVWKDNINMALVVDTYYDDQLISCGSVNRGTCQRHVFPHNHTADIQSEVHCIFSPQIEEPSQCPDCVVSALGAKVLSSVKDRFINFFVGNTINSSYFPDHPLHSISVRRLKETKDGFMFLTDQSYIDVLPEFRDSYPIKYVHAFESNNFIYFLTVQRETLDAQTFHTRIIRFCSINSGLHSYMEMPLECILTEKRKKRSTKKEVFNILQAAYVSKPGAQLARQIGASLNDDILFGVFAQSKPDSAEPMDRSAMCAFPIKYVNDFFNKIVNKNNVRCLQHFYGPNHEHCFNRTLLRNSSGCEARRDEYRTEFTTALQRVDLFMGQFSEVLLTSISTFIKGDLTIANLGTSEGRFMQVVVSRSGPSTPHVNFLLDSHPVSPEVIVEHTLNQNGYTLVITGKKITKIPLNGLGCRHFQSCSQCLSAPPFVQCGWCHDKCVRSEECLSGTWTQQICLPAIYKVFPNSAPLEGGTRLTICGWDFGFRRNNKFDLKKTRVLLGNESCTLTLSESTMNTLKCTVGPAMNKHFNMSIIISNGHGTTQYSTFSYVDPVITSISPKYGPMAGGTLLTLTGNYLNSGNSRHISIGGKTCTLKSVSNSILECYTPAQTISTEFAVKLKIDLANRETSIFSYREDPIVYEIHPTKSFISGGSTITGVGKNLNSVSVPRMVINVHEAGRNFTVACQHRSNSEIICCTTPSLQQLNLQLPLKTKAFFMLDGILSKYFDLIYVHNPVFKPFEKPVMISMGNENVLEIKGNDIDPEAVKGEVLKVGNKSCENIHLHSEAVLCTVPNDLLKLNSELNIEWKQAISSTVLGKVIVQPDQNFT
The description is as above.

The target of experiment [3] is T3, rHuman Notch-1/Fc Chimera, CF (R&D Systems Cat#3647-TK) (human, UniProt P46531 19-526).
T3 construct: Bought recombinant Fc chimera; Fc part of the bought chimera not given
The description is as above.

The target of experiment [4] is T4, rHuman CD44/Fc Chimera, CF (R&D Systems Cat#3660-CD) (human, UniProt P16070 21-220).
T4 construct: Bought recombinant Fc chimera; Fc part of the bought chimera not given
The description is as above.

Experiment [5] addresses T5, rHuman IGF-1 sR, CF (R&D Systems Cat#391-GR) (human, UniProt P08069 31-932).
T5 construct: Bought soluble receptor; also called insulin-like growth factor-1 soluble receptor
The description is as above.

Experiment [6] deals with T6, rHuman P-Cadherin/Fc Chimera, CF (R&D Systems Cat#861-PC) (human, UniProt P22223 108-654).
T6 construct: Bought recombinant Fc chimera; Fc part of the bought chimera not given
The experiment is described as above.

For experiment [7], the target named is T7, rHuman Erythropoietin R/Fc Chimera, CF (R&D Systems Cat#963-ER) (human, UniProt P19235 25-250).
T7 construct: Bought recombinant Fc chimera; also called EPO R; EPO R/Fc; Fc part of the bought chimera not given
T7 sequence (looked up): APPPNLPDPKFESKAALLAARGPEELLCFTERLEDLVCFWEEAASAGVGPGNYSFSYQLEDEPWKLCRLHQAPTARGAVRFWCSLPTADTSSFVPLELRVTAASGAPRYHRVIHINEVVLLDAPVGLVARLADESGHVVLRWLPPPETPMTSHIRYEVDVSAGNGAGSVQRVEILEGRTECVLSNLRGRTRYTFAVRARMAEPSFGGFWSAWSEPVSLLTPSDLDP
The description is as above.

The target of experiment [8] is T8, Recombinant Human DLL4 (R&D Systems Cat#1506-D4/CF) (human, UniProt Q9NR61 27-524).
T8 construct: Bought recombinant protein; also called delta-like protein 4; rHuman DLL4
Described as above.

The target of experiment [9] is T9, rHuman ErbB2/Fc Chimera, CF (R&D Systems Cat#1129-ER) (human, UniProt P04626 23-652).
T9 construct: Bought recombinant Fc chimera; also called human epidermal growth factor 2 receptor; Fc part of the bought chimera not given
Described as above.

The target of experiment [10] is T1, rHuman EGF R/Fc Chimera, CF (R&D …). The experiment is described as follows: ECL Multispot (MSD) assay, antigen spotted on plate, 10 nM Fab; blank spot 296.
The target of experiment [11] is T2, rHuman HGF R/c-MET/Fc Chimera, CF (R&D …). Described as above.
The target of experiment [12] is T3, rHuman Notch-1/Fc Chimera, CF (R&D …). The experiment is described as above.
Experiment [13] deals with T4, rHuman CD44/Fc Chimera, CF (R&D Systems …). The description is as above.
For experiment [14], the target named is T5, rHuman IGF-1 sR, CF (R&D Systems …). The experiment is described as above.
For experiment [15], the target named is T6, rHuman P-Cadherin/Fc Chimera, CF (R&D …). The description is as above.
Experiment [16] has as its target T7, rHuman Erythropoietin R/Fc Chimera, CF …. The experiment is described as above.
Experiment [17] deals with T8, Recombinant Human DLL4 (R&D Systems …). The description is as above.
In experiment [18] the target is T9, rHuman ErbB2/Fc Chimera, CF (R&D …). The experiment is described as above.
Experiment [19] deals with T1, rHuman EGF R/Fc Chimera, CF (R&D …). The experiment is described as follows: ECL Multispot (MSD) assay, antigen spotted on plate, 10 nM Fab; blank spot 271.
Experiment [20] deals with T2, rHuman HGF R/c-MET/Fc Chimera, CF (R&D …). The description is as above.
In experiment [21] the target is T3, rHuman Notch-1/Fc Chimera, CF (R&D …). Described as above.
Experiment [22] has as its target T4, rHuman CD44/Fc Chimera, CF (R&D Systems …). Described as above.
Experiment [23] concerns the target T5, rHuman IGF-1 sR, CF (R&D Systems …). The description is as above.
Experiment [24] addresses T6, rHuman P-Cadherin/Fc Chimera, CF (R&D …). The experiment is described as above.
Experiment [25] deals with T7, rHuman Erythropoietin R/Fc Chimera, CF …. The experiment is described as above.
Experiment [26] has as its target T8, Recombinant Human DLL4 (R&D Systems …). The description is as above.
Experiment [27] concerns the target T9, rHuman ErbB2/Fc Chimera, CF (R&D …). The experiment is described as above.
Experiment [28] concerns the target T1, rHuman EGF R/Fc Chimera, CF (R&D …). In words: ECL Multispot (MSD) assay, antigen spotted on plate, 10 nM Fab; blank spot 302.
Experiment [29] addresses T2, rHuman HGF R/c-MET/Fc Chimera, CF (R&D …). Described as above.
In experiment [30] the target is T3, rHuman Notch-1/Fc Chimera, CF (R&D …). The description is as above.
Experiment [31] addresses T4, rHuman CD44/Fc Chimera, CF (R&D Systems …). Described as above.
In experiment [32] the target is T5, rHuman IGF-1 sR, CF (R&D Systems …). The experiment is described as above.
Experiment [33] addresses T6, rHuman P-Cadherin/Fc Chimera, CF (R&D …). The experiment is described as above.
The target in experiment [34] is T7, rHuman Erythropoietin R/Fc Chimera, CF …. The experiment is described as above.
The target of experiment [35] is T8, Recombinant Human DLL4 (R&D Systems …). Described as above.
In experiment [36] the target is T9, rHuman ErbB2/Fc Chimera, CF (R&D …). The experiment is described as above.

B1: Fab VH1-46_IGHD6-6*01_IGHJ1*01 S102A/S103P/S104F/H111F S84G & L6_IGKJ1*01 (Fab, V domains shown)
VH: QVQLVQSGAEVKKPGASVKVSCKASGYTFTSYYMHWVRQAPGQGLEWMGIINPSGGSTSYAQKFQGRVTMTRDTSTSTVYMELGSLRSEDTAVYYCAREEYAPFSAEYFQFWGQGTLVTVSS
VL: not shown
notes: Fab expressed in E. coli: VH joined to CH1 from Plasmid A (with His6 and Flag tags), VL joined to kappa CL from Plasmid C; also called APFF S84G
On to B1, for which the ECL signal in [1] was 435; in [2], 419; in [3] it was 473; in experiment [4] it was 457; in [5], 395; in [6], 434. The ECL signal in [7] turned out to be 429; in experiment [8], 131000; in experiment [9] it was 299.

B2: Fab VH1-46_IGHD6-6*01_IGHJ1*01 S102A/S103P/S104F/H111F S84Q & L6_IGKJ1*01 (Fab, V domains shown)
VH: B1 VH with G84Q
VL: not shown
notes: Fab expressed in E. coli: VH joined to CH1 from Plasmid A (with His6 and Flag tags), VL joined to kappa CL from Plasmid C; also called APFF S84Q
B2: the ECL signal in [10] was found to be 347; in experiment [11], 255; in [12], 416; in experiment [13], 372; in experiment [14] it was 373; in experiment [15], 357. Besides, the results for the ECL signal in experiment [16], in [17] and in experiment [18] were 288, 122000 and 311, respectively.

B3: Fab VH1-46_IGHD6-6*01_IGHJ1*01 S102A/S103P/S104F/H111F S84N & L6_IGKJ1*01 (Fab, V domains shown)
VH: B1 VH with G84N
VL: not shown
notes: Fab expressed in E. coli: VH joined to CH1 from Plasmid A (with His6 and Flag tags), VL joined to kappa CL from Plasmid C; also called APFF S84N
As for B3, the ECL signal stood at 337 in experiment [19]; 375 in experiment [20]; 309 in experiment [21]; 251 in experiment [22]; 324 in experiment [23]; 167 in experiment [24]. Also, the ECL signal in [25] was determined as 415; in experiment [26], 135000; in [27], 307.

B4: Fab VH1-46_IGHD6-6*01_IGHJ1*01 S102A/S103P/S104F/H111F S84H & L6_IGKJ1*01 (Fab, V domains shown)
VH: B1 VH with G84H
VL: not shown
notes: Fab expressed in E. coli: VH joined to CH1 from Plasmid A (with His6 and Flag tags), VL joined to kappa CL from Plasmid C; also called APFF S84H
For B4, the ECL signal in [28] was found to be 306; in experiment [29], 374; in experiment [30], 331; in [31], 382; in [32] it was 353; in [33], 319. Besides, the ECL signal in experiment [34] was found to be 318; in experiment [35] it was 138000; in [36], 301.

The values are drawn from patent US20120316071A1 (published 2012).
